Source: article PMC3556572 (Biochemistry, 2012)
Read-outs that look alike come from different tables or passages of the source.

Assays:
Assay in all cases: co-sedimentation
[1] = molecular target: T1, filamentous actin (F-actin), chicken skeletal muscle (chicken, UniProt P68139 1-377)
[2] = molecular target: T1, filamentous actin (F-actin), chicken …; remark: listed apart in the source
[3] = molecular target: T1, filamentous actin (F-actin), chicken …; remark: listed apart in the source

Row | Binder | stoichiometry N [1] [Arg per actin monomer] | stoichiometry N [2] | stoichiometry N [3] | fold decrease in affinity for F-actin in the presence of saturating Arg [3] [fold]
1 | Abl2/Arg (Abelson-related gene) nonreceptor tyrosine kinase (enzyme) MGQQVGRVGEAPGLQQPQPRGIRGSSAARPSGRRRDPAGRTADAGFNVFTQHDHFASCVEDGFEGDKTGGSSPEVLHRPFGCDAESQALNEAIRWSSKENLLGATESDPNLFVALYDFVASGDNTLSITKGEKLRVLGYNQNGEWSEVRSKNGQGWVPSNYITPVNSLEKHSWYHGPVSRSAAEYLLSSLINGSFLVRESESSPGQLSISLRYEGRVYHYRINTTTDSKVYVTAESRFSTLAELVHHHSTVADGLVTTLHYPAPKCNKPTVYGVSPIHDKWEMERTDITMKHKLGGGQYGEVYVGVWKKYSLTVAVKTFKEDTMEVEEFLKEAAVMKEIKHPNLVQLLGVCTLEPPFYIVTEYMPYGNLLDYLRECSREEVTAVVLLYMATQISSAMEYLEKKNFIHRDLAARNCLVGENHVVKVADFGLSRLMTGDTYTAHAGAKFPIKWTAPESLAYNTFSIKSDVWAFGVLLWEIATYGMSPYPGIDLSQVYDLLEKGYRMEQPEGCPPKVYELMRACWKWSPADRPSFAETHQAFETMFHDSSISEEVAEELGRTASSSSVVPYLPRLPLLPSKTRTLRKQGENKENLDGGLDAAESLASSSAPAGFIRSTQASSGSPALPRKQRDKSPSSLLEDAKETCFTRDRKGGFFSSFMKKRNAPTPPKRSSSFREMENQPHKKYELTGNFSPVASLQNADGFSVAPSQQEPNLVPAKCYGGSFAQRNLCADDDSGGGGGSGTAGGGWSGITGFFTPRLIKKTLGLRAGKPTASDDTSKPFPRSNSTSSMSSGLPEQDRMAMTLPRNCQRSKLQLERTVSTSSQPEENVDRANDMLPKKSEEGAAPARERPKAKLLPRGATALPLRAPDPAITESDSPGVGVAGVAAAPKGKERNGGTRLGVAGVPEDGEQLGWSSPAKAVAVLPTTHNHKVPVLISPTLKHTPADVQLIGTDSQGNKFKLLSEHQVTSSGDKDRPRRVKPKCAPPPPPVMRLLQHPSTCSDPEEEPTAPPAGQHTPETQEGGKKAAPGPVPSSGKPGRPVMPPPQVPLPTSSISPAKMANGTAGTKVALRKTKQAAEKISADKISKEALLECADLLSSAITEPVPNSQLVDTGHQLLDYCSGYVDSIPQTRNKFAFREAVSKLELSLQELQVSSTAAGVPGTNPVLNNLLSCVQEISDVVQR | 0.5 | – | – | –
2 | cortactin (natural protein, exhibits tyrosine phosphorylation as purified from insect cells (anti-phosphotyrosine blot); sites not mapped here) not shown | – | 0.25 cortactin per actin monomer | – | –
3 | cortactin W525A (natural protein, exhibits tyrosine phosphorylation as purified from insect cells (anti-phosphotyrosine blot); sites not mapped here) not shown | – | 0.25 cortactin per actin monomer | 0.5 cortactin per actin monomer | –
4 | cortactin 3YF (natural protein) not shown | – | 0.25 cortactin per actin monomer | 0.5 cortactin per actin monomer | ~3
5 | cortactin W525A, enzymatically dephosphorylated (natural protein, dephosphorylated with CIP (no tyrosine phosphorylation on the anti-phosphotyrosine blot)) not shown | – | – | – | ~3
